The values below come from patent publication US20250263490A1 (VIB VZW, published 2025).

Test [1] addresses T1, recombinant human domain 1-3His6 of the cation-independent mannose-6-phosphate receptor (human, UniProt P11717 41-467).
T1 construct: Biotinylated (NHS-PEG4-biotin) for BLI; Glycosylated; also called hDom1-3His6; hCI-M6PRD1-D3
Kind of test: BLI exp 2, dissoc pH 7.4. Here is the method:
(§1) For each of the 11 anti-CI-M6PR VHHs, a biolayer interferometry (BLI) experiment was performed in which the hDom₁₋₃His₆ was biotinylated and coupled to streptavidin biosensor tips. Afterwards, the tips were incubated with serially diluted VHHs during the association phase and dissociation was performed at pH 7.4. Similarly, dissociation was performed at pH 7.0, pH 6.0 and pH 5.0 as well after regeneration of the biosensor tips. […] The anti-CI-M6PR antibody (clone 2G11) and GBP were used as positive and negative controls, respectively.
(§2) Analysis of the binding kinetics was performed using an Octet Red96 (FortéBio) device with Streptavidin SA Biosensor tips (VWR 733-2145). Therefore, 1 mL of human domain₁₋₃His₆ (0.5 mg/mL in 50 mM MES, 150 mM NaCl, pH 6.5) was incubated at room temperature for 30 minutes with EZ-Link™ NHS-PEG4-Biotin (1 mg) (Thermo Fischer A39259) and NaHCO₃ (100 mM). Biotinylated human domain₁₋₃His₆ was purified using a Zeba spin desalting Column™ (7K MWCO, 2 mL, Thermo Fischer 89890) and 1 μg/mL was used for immobilization on the Streptavidin SA Biosensor tips. The loaded tips were dipped into a particular anti-CI-M6PR VHH solution, serially diluted in kinetics buffer (0.2M NaH₂PO₄, 0.1M Na⁺ citrate, 0.01% BSA, 0.002% Tween20, pH 7.4). This was followed by dissociation of the particular anti-CI-M6PR VHH in kinetics buffer of pH 7.4, followed by regeneration in Glycine (10 mM, pH 3) and neutralisation. Same cycle was repeated but the dissociation was performed at pH 7.0, 6.0, 5.0, 4.5 and 4.0. A reference well and reference sensors were subtracted from ligand sensors afterwards and Savitsky-Golay filtering was applied on the data. Fitting of the data was performed using a 1:1 model, grouped per pH of dissociation.

For test [2], the target named is T1, recombinant human domain 1-3His6 of the …. Kind of test: BLI exp 2, dissoc pH 5. Here is the method: as §1
Analysis of the binding kinetics was performed using an Octet Red96 (FortéBio) device with Streptavidin SA Biosensor tips (VWR, 733-2145). To this end, 1 mL of hCI-M6PR_D1-D3 (0.5 mg/mL in 50 mM MES, 150 mM NaCl, pH 6.5) was incubated at room temperature for 30 minutes with a two-fold molar excesses of EZ-Link™ NHS-PEG₄-Biotin (Thermo Fischer, A39259) and NaHCO₃ (100 mM, pH 8.3). Biotinylated hCIMPR_D1-D3 was purified using a Zeba spin desalting column (Thermo Fischer, 89890) and protein concentration was calculated by measuring the absorbance at 280 nm (extinction coefficient 50320 M¹ cm⁻¹). Two-fold biotin-labelled antigen was loaded on the tips (2.5 μg/mL) and subsequently dipped into a particular anti-CI-M6PR VHH-containing solution (ranging from 0-100 nM). Serial VHH dilutions were made in kinetics buffer (0.2 M Na₂HPO₄, 0.1 M Na⁺ citrate, 0.01% BSA, 0.002% Tween20, pH 7.4). After association (100 sec), dissociation was conducted (500 sec) for each anti-CI-M6PR VHH in the kinetics buffer, followed by biosensor regeneration in glycine (10 mM, pH 3) and neutralisation. The same cycle was repeated with dissociation performed in kinetics buffer of pH 7.0, 6.5, 6.0, 5.5, and 5.0.
A reference well and reference sensors were subtracted from ligand sensors afterwards and Savitsky-Golay filtering was applied on the data. Fitting of the data was performed using a 1:1 model, grouped per dissociation pH.

Test [3] has the same target. The test is described as follows: BLI exp 1, dissoc pH 5. The procedure: as §1, §2
Test [4] shares this target. Kind of test: ELISA on coated antigen, 1st of 2 repeats. Here is the method: FIGS. 4A-4B. Affinity of anti-CI-M6PR VHHs for recombinant human CI-M6PR Domain 1-3His₆ determined by ELISA. A & B. Measurements for each of the 11 anti-CI-M6PR VHHs in serial dilution binding to the coated human CI-M6PR Domain 1-3His₆ antigen. Detection was performed using an anti-VHH antibody coupled to HRP, and measured as the absorbance of the TMB substrate at 450 nm, correlating to the amount of bound VHH as plotted at the Y-axis. The Log₁₀ concentrations of the serially diluted VHHs were plotted at the X-axis. […] A & B represent replicates but using a different concentration of human CI-M6PR Domain 1-3His₆ (in (FIG. 4A): 0-0.75 μM and in (FIG. 4B): 0-1 μM).
We evaluated the affinity of the VHHs against the hDom₁₋₃His₆ using ELISA. Coated hDom₁₋₃His₆ was incubated with serially diluted VHH that was afterwards detected using an anti-VHH antibody, coupled to HRP.

Test [5] concerns the target T2, recombinant mouse domain 1-3His6 of CI-M6PR (mouse, UniProt Q07113 36-418).
T2 construct: Genbank NM_010515.2); Range includes the signal peptide; also called mDom1-3His6; mCI-M6PRD1-D3
Kind of test: ELISA: coated mouse CI-M6PR Domain 1-3His6, serially diluted VHH, anti-VHH-HRP, TMB, Abs 450 nm; sigmoidal regression [table at the right]. The procedure:
FIGS. 5A-5B. Affinity of anti-CI-M6PR VHHs for recombinant mouse CI-M6PR Domain 1-3His₆ determined by ELISA. (FIG. 5A) Measurement for each of the 11 anti-CI-M6PR VHHs in serial dilution binding to the coated mouse antigen. Detection was performed using an anti-VHH antibody coupled to HRP, and measured as the absorbance of the TMB substrate at 450 nm, correlating to the amount of bound VHH as plotted at the Y-axis. The Log₁₀ concentrations of the serially diluted VHHs were plotted at the X-axis.
To evaluate the cross-reactivity of the anti-CI-M6PR nanobodies between the human and mouse CI-M6PR domain 1-3His₆ antigen, ELISA was performed with the eleven serially diluted anti-CI-M6PR nanobodies. […] By performing sigmoidal regression on the derived absorbance curves, half-maximal effective concentration (EC₅₀) values of each VHH were acquired, representing the required concentration to occupy 50% of the coated antigen. As a negative control, GBP was included in the assay.
In general terms: ELISA stands for enzyme-linked immunosorbent assay.

As a reminder, the Kd is the concentration at which binding is half-saturated. For orientation: koff means the rate constant with which the complex falls apart. Usually kon stands for the second-order rate constant of association. A word on the EC50: it is the concentration at which the effect is half-maximal.

T2 sequence (Q07113 other isoform, or with tags, fused parts or gaps): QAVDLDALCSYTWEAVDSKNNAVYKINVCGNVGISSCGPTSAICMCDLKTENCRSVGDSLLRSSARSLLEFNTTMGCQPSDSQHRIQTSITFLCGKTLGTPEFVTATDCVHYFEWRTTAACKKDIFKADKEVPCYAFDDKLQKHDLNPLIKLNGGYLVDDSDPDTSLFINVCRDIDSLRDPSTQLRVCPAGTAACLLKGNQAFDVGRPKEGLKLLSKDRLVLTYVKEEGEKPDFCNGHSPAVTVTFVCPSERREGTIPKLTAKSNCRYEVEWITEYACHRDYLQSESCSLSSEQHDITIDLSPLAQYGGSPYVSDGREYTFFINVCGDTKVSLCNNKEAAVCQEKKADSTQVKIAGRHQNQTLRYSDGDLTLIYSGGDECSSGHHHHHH

B1: anti-CI-M6PR VHH7 (VHH)
VHH: QVQLQESGGGLVQPGGSLRLSCAASGIIFSDNRMDWYRQAPGKQREWVATLASYGWKTYADSVKGRFTISRDNTKNTVYLRMNSLKPEDTAVYYCKASSPVLNDIWGQGTQVTVSS
notes: His6-tagged (Pichia pastoris)
As to B1, in test [1], the Kd came to 9.08 nM, the koff was determined as 0.0118 s⁻¹ and the kon stood at 1.3e+06 M⁻¹ s⁻¹. Further, in test [2], the koff is 0.055 s⁻¹ and the kon is 55000 M⁻¹ s⁻¹. Besides, in test [3], the Kd turned out to be 11.7 nM, the koff is 0.0542 s⁻¹ and the kon came out at 4.62e+06 M⁻¹ s⁻¹. In addition, the EC50 in test [4] was 0.0109 nM.

B2: anti-CI-M6PR VHH9 (VHH)
VHH: QVQLQESGGGLVQAGGSLRLSCAASGTILSIKTMGWYRQAPGKEREWVATITSSSIPMYADSVKGRFTISRDDAKNTVYLQMNSLKPEDTGVYYCNAPWTDYWGQGTQVTVSS
notes: His6-tagged; made in Pichia pastoris
As for B2, the dissociation constant (Kd) in test [1] turned out to be 0.282 nM; in test [3] it was 84.1 nM. Also, the koff is 0.000444 s⁻¹ in test [1], 0.0496 s⁻¹ in test [2] and 0.0496 s⁻¹ in test [3]. Further, the on-rate constant (kon) is 1.57e+06 M⁻¹ s⁻¹ in test [1], 590000 M⁻¹ s⁻¹ in test [2] and 590000 M⁻¹ s⁻¹ in test [3]. The EC50 in test [4] was 0.00642 nM; in test [5], 2750 nM.

B3: anti-CI-M6PR VHH6 (VHH)
VHH: QVQLQESGGGLVQAGGSLRLSCAVSGSISSIGGMGWFRQAPGKQREFVAVILNNSGMTSYADSVKGRFTISRGNSKNTMYLQMNSLKPEDTAVYYCNYSGYWGQGTQVTVSS
notes: His6-tagged; made in E. coli
Take B3: the Kd in test [1] came to 4.74 nM; in test [3] it was 8.5 nM. The koff in test [1] is 0.00352 s⁻¹; in test [2] it was 0.0156 s⁻¹; in test [3], 0.0156 s⁻¹. Also, the results for the kon in test [1], in test [2] and in test [3] were 743000 M⁻¹ s⁻¹, 330000 M⁻¹ s⁻¹ and 1.84e+06 M⁻¹ s⁻¹, respectively. For the same molecule, the results for the EC50 in test [4] and in test [5] were 84.2 nM and 9750 nM, respectively.

B4: anti-CI-M6PR VHH1 (VHH)
VHH: QVQLQESGGGLVQPGGSLRLSCVASGFTFDRYWMNWLRQIPGKEIEWVSTINTGGTGTYYDDSVKGRFSISRDDAKNTLYLTMNSLKTEDTAVYYCARGATYYRGNSAIRGQGTQVTVSS
notes: His6-tagged; made in Pichia pastoris, later also in E. coli WK6
With B4, the equilibrium dissociation constant (Kd) was roughly 11.2 nM in test [1] and 24.7 nM in test [3]. The koff in test [1] was 0.0099 s⁻¹; in test [2], 0.072 s⁻¹; in test [3] it was roughly 0.0988 s⁻¹. Besides, the on-rate constant (kon) in test [1] amounted to 1e+06 M⁻¹ s⁻¹; in test [3], 4e+06 M⁻¹ s⁻¹. Further, the 50% effective concentration (EC50) in test [4] was found to be 1.78 nM; in test [5] it was 355 nM.

B5: anti-CI-M6PR VHH5 (VHH)
VHH: QVQLQESGGGLVQAGGSLKLSCAAAGRTFSRLAMGWFRQAPGKEREFVAAISENGDSIHYSDSVKGRFAVSRDNAKNTVYLQMNSLKPEDTAIYYCAADRAAYYCSGSGCYPSRAPAAASYDYWGQGTQVTVSS
notes: as for B4
B5: the koff in test [1] is 0.00018 s⁻¹; in test [2], 0.033 s⁻¹; in test [3] it was 0.00861 s⁻¹. For the same molecule, the kon was 1.8e+06 M⁻¹ s⁻¹ in test [1], 2.33e+08 M⁻¹ s⁻¹ in test [2] and 1.5e+06 M⁻¹ s⁻¹ in test [3]. Further, the Kd in test [3] stood at 5.76 nM. Besides, the EC50 in test [4] came to 0.0816 nM; in test [5] it was 562 nM.

B6: anti-CI-M6PR VHH3 (VHH)
VHH: QVQLQESGGGLVQPGGSLRLSCAAFGLNFKNFDMIWFRQAPGEERDIVAAISSSSSTIWYEDSVKGRFTISRDNAKNTVYLQMNSLKPEDTAVYYCAAALTSWRRPDYWGQGTQVTVSS
notes: as for B2
For the molecule B6, the results for the Kd in test [1] and in test [3] were 7.09 nM and 1.36 nM, respectively. Also, the figures for the koff in test [1], in test [2] and in test [3] were 0.000345 s⁻¹, 0.000369 s⁻¹ and 0.00149 s⁻¹, respectively. The kon in test [1] turned out to be 48600 M⁻¹ s⁻¹; in test [2], 55600 M⁻¹ s⁻¹; in test [3] it was 1.1e+06 M⁻¹ s⁻¹. For the same molecule, the figures for the EC50 in test [4] and in test [5] were 0.0379 nM and 670 nM, respectively.

B7: anti-CI-M6PR VHH8 (VHH)
VHH: QVQLQESGGGLVQAGGSLRLSCEASGRTFNTYNWGWFRQAPGKEREFVAAIRWSSSKTSYADSVKGRFTISRDNAKNTIYLQMNSLKPEDTAVYYCAASIVDFTTNPSHFGSWGQGTQVTVSS
notes: His6-tagged (Pichia pastoris)
In the case of B7, the koff came out at 0.00065 s⁻¹ in test [1], 0.084 s⁻¹ in test [2] and 0.0328 s⁻¹ in test [3]. Also, the results for the on-rate (kon) in test [2] and in test [3] were 2.4e+06 M⁻¹ s⁻¹ and 302000 M⁻¹ s⁻¹, respectively. Further, the Kd in test [3] turned out to be 109 nM. Besides, the 50% effective concentration (EC50) in test [4] was determined as 0.11 nM; in test [5], 595 nM.

B8: anti-CI-M6PR VHH4 (VHH)
VHH: QVQLQESGGGLVQAGGSLRLSCAASGRTFSNYVMGWFRQAPGKEREFVGSISQGGKMTYYPDSVKGRFTISRDNAKNTMYLQMDGLKPEDTAVYYCAVSRGYPMVRVSEVDYWGQGTQVTVSS
notes: as for B2
Consider B8, for which the Kd in test [1] turned out to be 2.34 nM; in test [3], 10 nM. The off-rate (koff) was 0.00133 s⁻¹ in test [1], 0.00729 s⁻¹ in test [2] and 0.00729 s⁻¹ in test [3]. Besides, the figures for the kon in test [1], in test [2] and in test [3] were 571000 M⁻¹ s⁻¹, 729000 M⁻¹ s⁻¹ and 729000 M⁻¹ s⁻¹, respectively. Besides, the concentration for a half-maximal effect (EC50) in test [5] was 873 nM.

B9: anti-CI-M6PR VHH10 (VHH)
VHH: QVQLQESGGGSVQAGGSLRLSCAPAGRTFSRIRMGWFRQAPGKEREFVAAISSGGLSYYADSMKGRFTISRDNAKNTVLLQMNSLEPDDTAVYYCAAVLNDYIDDYVARNPTLYDYWGQGTQVTVSS
notes: as for B2
Regarding B9, in test [1], the Kd worked out at 46.5 nM. For the same molecule, the results for the koff in test [1], in test [2] and in test [3] were 0.00177 s⁻¹, 0.0106 s⁻¹ and 0.0106 s⁻¹, respectively. In addition, the kon in test [1] amounted to 38100 M⁻¹ s⁻¹; in test [2] it was 91100 M⁻¹ s⁻¹; in test [3], 91100 M⁻¹ s⁻¹. Also, the EC50 was determined as 0.0657 nM in test [4] and 1620 nM in test [5].
